Source: paper PMC4595432

Molecular target: DnaA fused to the N-terminal domain of the phage 434 repressor (pcI434-dnaA) (E. coli K12) (UniProt P03004)
Experiment: two-hybrid; bacterial two-hybrid system in E. coli R721 (434-P22 chimeric operator upstream of lacZ); fusions to the N-terminal domains of the 434 and P22 repressors; β-galactosidase in Miller units, cultures at A600 0.5 in LB with 0.1 mM IPTG; an interaction lowers the activity and is scored positive when the ratio to R721 is below 0.5

HtpG fused to the N-terminal domain of the phage P22 repressor (pcIP22-htpG) (from UniProt P0A6Z3 1-624) (natural protein)
ratio β-galactosidase activity tested strain/R721: 0.19 | β-galactosidase activity: 1070 Miller units
